# Measured values published in the DeepSol protein solubility set.
# Test: soluble on expression in E. coli; label from the status in PepcDB or PDB records
row,Sequence,soluble on expression in E. coli
1,MQHECNTDYTIAKYIPYIKPKYVTQEGTTVLYVRYNYNRNKRTLISTGYNIKPEHWDAKRKWIKRACPHYEEIDACLIKITSKLGDILTYAKVNGIDPTVDFVLLELEKNREYDLRPNRVDMFDALERYIVEKAPSVSADQIKDYRTLRKHLTAFKEYSSQPVTFRNLNLTFYNEFMDYLFHKVVKPNGTVGLLTNSAGKIIRLLKGFVNYQIVKGIIPPIDLKNFKVVEEETDAIYLNEKELAAIYELDLSDDKQLEEIRDVFITGCFTGLRYSDLSTLSPEHIDLDNENINLKQRKVHKAVVIPMIDYVPEILKKYNYDLPKIPRYMFNERVKELGRKIKLSQKIEVVRRKGKEREKRVYEKWEMISSHTCRRSFCTNMYLSGFPAAELMRISGHKSPSAFMRYIKVDNQQAAKRLKELRAKLAR,not soluble
2,MSLAEIGVDAAFIDLLVETFYGRVLEHQTLGPVFDARLAGRWPEHMARMKQFWTAIAFKNGSYGGKPVQAHLGVQGMSAELFPQWLALFSVTLDDIAPSRKAHDWFMETAERIARSLTLSLFYNPAMDDPAVKREGHHHHHH,not soluble
3,MLERILSRENLIQALERVEKNKGSYGVDEMDVKSLRLHLHENWTSIRNEIIEGSYFPKPVRRVEIPKPNGGVRKLGIPTVMDRFLQQAIAQILTQLYDPTFSERSFGFRPHRRGHNAVRQAKQWMKEGYRWVVDIDLEKFFDKVNHDRLMRKLSSRIQDPRVLQLIRRYLQTGVMERGLVSPNTEGTPQGGPLSPLLSNIVLDELDNELEKRGLKFVRYADDCNIYVRSKRAGLRIMESVTSFIENRLKLKVNREKSAVDRPWNRKFLGFSFTRGKDPKMRVSKESVKRLKQRIRELTSRRHSMKMSDRLRRLNRYLTGWLGYYQLVDTPSILAQIDAWIRRRLRMIRWKEWKTTSARQKNLVRLGIKKAKAWQWANSRKGYWRVAHSPIMDYALNSEYWKGQGLMSLAERYQTRRWTLEHHHHHH,not soluble
4,MHSDELLVEILVEELPAQALLNEYKEMPKKLHALFNKRALEVGNIEIFYTPRRLCLLIKDFPLLTQETKEEFFGPPVKIACNHQDKTQGLNALGLGFYQKLGLKDHQYFQTAFKNNKEVLYHAKIHEKEPTKDLIMPIVLEFLEGLNFGKSMRWGNVEKSFIRPIHNICVLFNGEDFSGIEVKEYGFKTKQATKVHRQEGFDFIQVDSPKAYFEVLEKNHVILDPKKREAKILQEIKELETKHHIIVETDRDLLDEVVAITEYPSALLGEFDKAFLKLPSEIIITSMKENQRYFATFCQKSQEESPTLHNGFIVVSNAINKDKQKIILGNQKVLKARLSDAVFFYENDLKKPLDNAPLESVVFVQGLGTLKDKMERESIIAQYLTQKYISSLNMPLEKALELVKRAVQIAKADLLSEVVYEFSELQGIMGYYYALKQNENELVALSVKEQYLPASENAPLPSSVFSSIVALSLKLDSLFSLFSVGKIPSGSKDPFALRRLSFGLLKIIAHYGLEFDLKADLKNLFQKVGVYQSFDLEILEKFLLERFHNLIDCNPSIIRSVLNTNERDIVK,not soluble
5,MTKLNAFLDTLGEGIRQKFWDIVAAAKTDAQTNLPSDKAKELAGEVISDFEQGNLFKSHQEISAELKSKFESLDDADKAAVKNLAKVYGKQAKALVMPHLPEDCKAKTDATDDAGKAAVAGGFDTGDYLPRKKRELLFIDNLTAAFREMRSRRGF,not soluble
6,MAAYKLVLIRHGESAWNLENRFSGWYDADLSPAGHEEAKRGGQALRDAGYEFDICFTSVQKRAIRTLWTVLDAIDQMWLPVVRTWRLNERHYGGLTGLNKAETAAKHGEAQVKIWRRSYDVPPPPMEPDHPFYSNISKDRRYADLTEDQLPSCESLKDTIARALPFWNEEIVPQIKEGKRVLIAAHGNSLRGIVKHLEGLSEEAIMELNLPTGIPIVYELDKNLKPIKPMQFLGDEETVRKAMEAVAAQGKAKK,soluble
7,MDALQAYGGSDSEHSDDDASMDQVAKGKSSTLLERAIVTAPDVESKSAIRQVAIVDPKTKEIKSNPKFDQLFKPESGPVNHFKSEQQRSQKNTLTGFVEPAHLNEFHFNRQIRSFDTLGYAQNPTAESGTTHFVGDVKKAEAEKGVSLFESKKTGGEKRKRVRNDDSADIDGYTGPWSRFIDEKTVAKPTPELQKQMDEIVKKRQEKSRRFKKEKEDSEQMAEESSTLHLKEAEDYQGRSFLVPPSFTGVNLREDYVPERCFVPKKLVHTYRGHNKGVNFLQWFPKSAHLFLSCSMDTKIKLWEVYDRQRVVRTYAGHKLPVREVAFNNEGTEFLSASFDRYVKLWDTETGQVKQRFHTGHVPYCLKYHPDDDKNHMFLVGMQNKKIIQWDSRSGEIVQEYDRHLQAVNSITFFDKNRRFASTSDDKSVRIWEWEIPVDTKLIQNVGLHAIPTMTKSPNDKWVVGQCMDNRIVLFQLVDDKLRFSKKKAFRGHNAAGYACNIDFSPDQSFLISGDADGKLFIWDWRTHKIVGKWKAHDSTCIAALWHPHEKSRMITAGWDGLIKMWN,soluble
8,MPVLSKLARKMYSRLKSSLLNHFQKGANSSSNPSYNGLTKEEKKRLRHSLAECQLNDVYDPDSAHSSYQHSVSFVTTKPSSRHHQQTIDTSGHAPLAPQEVYLDETSSNSASTFYSDLLASSFSSAGGNSSFTCDYEDTNETSFIMSSGLPALSWNVQYIGSFPISGSYVDNLGRRIDSFQPTTSGGMQSVELSISVLGVKICCEKTVLMSHSLRRVTDISARPDTQNIGYVATEPVGRTYRRLCHVFHCQSLKEVSLKIHSVNVKLPGKSENRKSSTGVWALFAPIADHHIVTPVALFRLNLYNFKIGKNLQNNFEMWAIKIFKMFMGRNIFDQQDPEITIFKVSNSPAEEIENVLRNANQSQVLAAKQPKSAVSTSSMHPTNTASTMTEKRSASTVFLNRFLGKKGSQTVDESGQCKRKRRPVSAVFSSAIHRLSSSTSSVNPKRMSTIEPQAPTREQLLQLQNQMRCAASSPVPEEPRPTDLCAASTTTSTSSVASSSSSNGSSSSTDTSPVPPAPQTALVYDEKLGEWIYPIDQALMTQLDNCSYFVGQPTKDSMVYNLNTQPEGAFVIRYSESKSKCLALSMRVPCSHNPSGISHYLIIRNEQGFRLKLSATKKPFPTLQMMLTHHSVLESHLPCTLHFVQWQKTNFKQLAAMSTVERPLRTFNRHSTALTKIDENRNVTATSTPYRPSGRCGGGIDDFTTPKNRRTRNEINAMRRSHFFDDRQIVL,not soluble
9,MENKVVEEKQVDKIPLMSPCKMGKFELCHRVVLAPLTRQRSYGYIPQPHAILHYSQRSTNGGLLIGEATVISETGIGYKDVPGIWTKEQVEAWKPIVDAVHAKGGIFFCQIWHVGRVSNKDFQPNGEDPISCTDRGLTPQIMSNGIDIAHFTRPRRLTTDEIPQIVNEFRVAARNAIEAGFDGVEIHGAHGYLIDQFMKDQVNDRSDKYGGSLENRCRFALEIVEAVANEIGSDRVGIRISPFAHYNEAGDTNPTALGLYMVESLNKYDLAYCHVVEPRMKTAWEKIECTESLVPMRKAYKGTFIVAGGYDREDGNRALIEDRADLVAYGRLFISNPDLPKRFELNAPLNKYNRDTFYTSDPIVGYTDYPFLETMT,soluble
10,MSLGETTNLTFLRTDGQNIVTGTGEIFHIRGVTLTNNFWGNWVNGESEKLQSQGMDPIIRPLVQDAWVLTDDDFERIKDLGCNTVLYDINYQLFAEDNPNREENLKKLKEHIRRFSSMDIYTAVMLMAPPGLDSINDAYEKYKHGSERIKSVFEDDTYYEQWVEMWKYLAEELKDFKGVAGYGLINQPRAPSESEGGIGIFRERLNNVCREIRKIDKNHIIFVPEYNSREANPGESYWNEKTNSYVIDNGEQGIIWERGLVKVDSSNVVYLFHFFEPYNFVNDGVGDFDAESLEAQVRKRYEWAKNVGRAPLLTEYGISRVNSVDKRVQWLETVHDIFDKYGISASYFQYKNAVGAFINVKTGFNALYGEYVSWDSEIGLNPFYFVNEHVATSAKENHFDEALKEYYLKGKNLKKISILDNQPILETLQNFWKEGHHHHHH,soluble
11,PHSPLAEGRREVAKVLTMASEALTQVSTAMRTGDVDGIREALRKARGSQAAINAMIAAAKSGQEEVAVSPFLWSSKARVRSFVRILHPVDNAMRNTRVLARRAQVLIEDGDEVSEAQIQLIDDLVSVTSAVAAIYDRRGAASEAAEIPELVRTLQTMAARAGLSVAEGKVLSAQVVLAQTRSIIVDLLQVCGMSRASAVASLALTSESPAYPSEIRDDPNH,soluble
12,MKKSSLNNLEYLDISQEVNALQVPNTPFLSYLLGAGKVEAAKSTEIKWREYGMNNDDSSAQLEGGEYADAESDRTWFNNYTEIFRKSTSVSGTLDAINVDGVGNELNSQVALRATEMKIDLNRKLIVGVKADESGSKGRQMNGILNLISSTNKVETAAAGAVTRKDIDALFKTMFQKGYMGEKLCLVAPDMQELMIDQLDEKSTKIVQFGDKLTFGLQLGNIVSNYGSGIALIEPNLPNGTIAAIDTNYVKLRPLREWRAEELAKTTDSRRIGLVGEYSIEYKASNSGAILNLKA,not soluble
13,MGSDKIHHHHHHMKSIKAADLHAAVRDMIMDANRVLGKDVYNAFQTCMQQETTDSGKEVLRQLLENADLAAQSGLALCQDTGVAVFFVEMGEEVRMEGGGLKETLNAAMVEAYNKAFLRKSMCHPLTRKNTGDNTPAVIHVELVPGDTLKVRYMAKGGGSENMSRCTMLTPAQGWQGIKDFVVRRMAEAGPNPCPPTIVGVGIGGTFDLAPSLAKGALFRRVDDVHPDPEIAAMEKELLDEINALGIGPMGLGGKTTCLAVKIAMHPCHIASLPLAVNVQCHSSRHKEVVF,not soluble
14,MHPMNILLKLPLKIPLMIIEKAREILEKHPLCNHCLGRMFAKLGKGTNEERGKAIRLILSMELNREVKEPENCELCQGIFRRMNELLDLVRNAVEDYEFQTFQIGSRFPKDILEKEKKIWEEFGITTGEPINREFNRELGKLFAKVTGKIPNRERPDIVIIVEPFSSKVELQVNPIYVAGRYRKLVRGIPQTPAPGFEESIATIICRVFKKNFRGKCIFKGAGREDVDVRTLGRGRPFVVEIKKPRKRKVDLKLIEEEINSSGKVEVLELKFITPEESEKILTARHKKIYEALVYVKDGVSAEEVEKVVKSLKGSEIKQRTPRRVLNSRADIVRVRRVYNVSGEYIDEHHFKLKLVTDGGLYIKELISGDKGRTKPSVSEILGKEAWCEILDVLDVLDGDENVEGDSLEHHHHHH,not soluble
15,MLVPLYDVMCRALGINGKTAGSAYSGEQQVDVGREVKVQFMTSNNIDMVWEFRSAGDQLVVHPGAVNQMVFYARNPSDKPMTAQAIPSIAPAEAAAYFHKTECFCFTQQVLQPGESIEMPVRFIVDRDLPKDVRHVTLAYTLFDI,soluble
16,MDFKAKLLAEMAKKRKAVSGMEVKEGNAKFVKGADLEMKRNQEYERKQQEIASKKRKVDDEILQESSSRTKPAPVENESEIDEKTPMSEIQTRLRQRNHPIMLFGETDIDVRKRLHQLELAQPDLNEGWENELQTAMKVIGKEMDKAVVEGTADSATRHDIALPQGYEEDNWKNIEHNSTLLSVDDDLKRDCDIILSICRYILARWAKDLNDRPLDVKKTAQGMHEAAHHKQTMMHLKSLMTSMERYNCNNDIRHHLAKICRLLVIDRNYLEANNAYMEMAIGNAPWPVGVTRSGIHQRPGSAKSYVSNIAHVLNDETQRKYIQAFKRLMTKMQEYFPTDPSKSVEFVKKAV,not soluble
